Experimental data reported in publication PMC6013222, “SNPs in inflammatory genes CCL11, CCL4 and MEFV in a fibromyalgia family study” (PLoS ONE, 2018).

T1: Recombinant human CCL4 (MIP-1β), wild type (human), P13236
T1 chain: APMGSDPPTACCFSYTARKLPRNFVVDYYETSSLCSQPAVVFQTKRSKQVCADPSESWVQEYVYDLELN


Tests used:
[1] = target: T1, Recombinant human CCL4 (MIP-1β), wild …; assay: SEC; Superdex 200 10/30 column, 0.5 mL/min in PBS, UV detection at 214 and 280 nm; details: remark: other sources report otherwise
[2] = target: the molecule itself; assay: as above

Row | stoichiometry N [1] | Binder | stoichiometry N [2]
1 | 2 | Recombinant human CCL4 (MIP-1β), wild type, P13236 24-92 (ligand) APMGSDPPTACCFSYTARKLPRNFVVDYYETSSLCSQPAVVFQTKRSKQVCADPSESWVQEYVYDLELN | 
2 |  | Recombinant human CCL4 variant (S80T) (ligand, UniProt P13236 24-92, looked up, C-C motif chemokine 4 (CCL4, MIP-1β), human, natural variant Ser80Thr from SNP rs1719152, recombinant; On SEC two broad peaks: a high molecular weight aggregate (>300 kDa) and a 16 kDa dimer; also called varCCL4; variant CCL4; source: bought: Kingfisher Biotech, Inc) APMGSDPPTACCFSYTARKLPRNFVVDYYETSSLCSQPAVVFQTKRSKQVCADPSETWVQEYVYDLELN | 2
